The source of these data is patent US20150337051A1 (MORPHOTEK, published 2015).

The target of assay [1] is T1, recombinant CHO TEM-1 Fc fusion protein (UniProt Q9HCU0).
T1 sequence (looked up): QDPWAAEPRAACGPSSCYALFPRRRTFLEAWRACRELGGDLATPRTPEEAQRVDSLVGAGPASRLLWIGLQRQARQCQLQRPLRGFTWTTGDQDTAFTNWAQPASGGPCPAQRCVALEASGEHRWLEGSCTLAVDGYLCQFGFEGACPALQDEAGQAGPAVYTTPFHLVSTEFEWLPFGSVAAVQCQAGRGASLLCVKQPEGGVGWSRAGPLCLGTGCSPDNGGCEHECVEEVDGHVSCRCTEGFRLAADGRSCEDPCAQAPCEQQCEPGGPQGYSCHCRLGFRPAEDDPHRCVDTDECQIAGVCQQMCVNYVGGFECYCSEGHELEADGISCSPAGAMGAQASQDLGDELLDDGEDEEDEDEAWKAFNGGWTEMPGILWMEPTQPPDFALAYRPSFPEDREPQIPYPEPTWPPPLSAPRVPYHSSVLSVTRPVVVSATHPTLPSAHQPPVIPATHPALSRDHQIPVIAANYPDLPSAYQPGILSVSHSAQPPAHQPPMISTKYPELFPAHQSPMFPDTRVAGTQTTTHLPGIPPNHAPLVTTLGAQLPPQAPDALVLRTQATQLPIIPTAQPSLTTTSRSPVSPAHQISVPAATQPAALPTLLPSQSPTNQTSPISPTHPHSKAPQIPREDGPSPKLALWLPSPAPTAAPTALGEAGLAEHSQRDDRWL
In words: ECL sandwich, competition: biotin-9G5 capture, sulfo-TAG-15F8 detection; MORAb-004 spike 50 µg/mL, TEM-1-Fc QC 2 ng/mL; recovery at 0 µg/mL MORAb-004: 106.

The target of assay [2] is T1, recombinant CHO TEM-1 Fc fusion protein. The assay can be described thus: ECL sandwich, competition: biotin-9G5 capture, sulfo-TAG-15F8 detection; MORAb-004 spike 1.5625 µg/mL, TEM-1-Fc QC 0.08 ng/mL; recovery at 0 µg/mL MORAb-004: 114.
Assay [3] has the same target. In words: ECL sandwich, competition: biotin-9G5 capture, sulfo-TAG-15F8 detection; MORAb-004 spike 25 µg/mL, TEM-1-Fc QC 0.4 ng/mL; recovery at 0 µg/mL MORAb-004: 109.
For assay [4] the target is unchanged. In words: ECL sandwich, competition: biotin-9G5 capture, sulfo-TAG-15F8 detection; MORAb-004 spike 3.125 µg/mL, TEM-1-Fc QC 0.08 ng/mL; recovery at 0 µg/mL MORAb-004: 114.
The target is the same in assay [5]. The assay can be described thus: ECL sandwich, competition: biotin-9G5 capture, sulfo-TAG-15F8 detection; MORAb-004 spike 12.5 µg/mL, TEM-1-Fc QC 2 ng/mL; recovery at 0 µg/mL MORAb-004: 106.
Assay [6] shares this target. In words: ECL sandwich, competition: biotin-9G5 capture, sulfo-TAG-15F8 detection; MORAb-004 spike 6.25 µg/mL, TEM-1-Fc QC 2 ng/mL; recovery at 0 µg/mL MORAb-004: 106.
Assay [7] shares this target. The assay can be described thus: ECL sandwich, competition: biotin-9G5 capture, sulfo-TAG-15F8 detection; MORAb-004 spike 0.78125 µg/mL, TEM-1-Fc QC 10 ng/mL; recovery at 0 µg/mL MORAb-004: 105.
Assay [8] has the same target. The assay can be described thus: ECL sandwich, competition: biotin-9G5 capture, sulfo-TAG-15F8 detection; MORAb-004 spike 12.5 µg/mL, TEM-1-Fc QC 10 ng/mL; recovery at 0 µg/mL MORAb-004: 105.
For assay [9] the target is unchanged. In words: ECL sandwich, competition: biotin-9G5 capture, sulfo-TAG-15F8 detection; MORAb-004 spike 3.125 µg/mL, TEM-1-Fc QC 10 ng/mL; recovery at 0 µg/mL MORAb-004: 105.
For assay [10] the target is unchanged. The assay can be described thus: ECL sandwich, competition: biotin-9G5 capture, sulfo-TAG-15F8 detection; MORAb-004 spike 0.78125 µg/mL, TEM-1-Fc QC 0.4 ng/mL; recovery at 0 µg/mL MORAb-004: 109.
Assay [11] shares this target. In words: ECL sandwich, competition: biotin-9G5 capture, sulfo-TAG-15F8 detection; MORAb-004 spike 0.78125 µg/mL, TEM-1-Fc QC 0.08 ng/mL; recovery at 0 µg/mL MORAb-004: 114.

B1: MORAb-004 (antibody, INN chains, looked up, V domains shown)
VH: QVQLQESGPGLVRPSQTLSLTCTASGYTFTDYVIHWVKQPPGRGLEWIGYINPYDDDTTYNQKFKGRVTMLVDTSSNTAYLRLSSVTAEDTAVYYCARRGNSYDGYFDYSMDYWGSGTPVTVSS
VL: DIQMTQSPSSLSASVGDRVTITCRASQNVGTAVAWLQQTPGKAPKLLIYSASNRYTGVPSRFSGSGSGTDYTFTISSLQPEDIATYYCQQYTNYPMYTFGQGTKVQIK
Regarding B1, the % Recovery of TEM-1 QCs spiked with MORAb-004 is 89.9% in [1]; 103% in assay [2]; 96.5% in assay [3]; 103% in assay [4]; 92.8% in assay [5]; 94.2% in assay [6]. For the same molecule, the % Recovery of TEM-1 QCs spiked with MORAb-004 was 100% in assay [7]; 91.2% in assay [8]; 95.8% in assay [9]; 105% in assay [10]; 107% in assay [11].
